Source: US20170129959A1

B1: MD707-13 (anti-human CD127 antibody, WO2013/056984) (antibody, from another filing, V domains shown)
VH: QLKESGPGLVQPSQTLSLTCTVSGLSLPNNNIAWIRQSPGKGLEWMGVIWSNGDTDYNSAIRSRLSISRDSSKSQVFLRMNSLQSEDTAMYFCAREGMTTLDYWGQGVVVTVSS
VL: EIVLTQSPTTMAASPGEKVTITCRASSSVSYMHWFQQKSGSSPKPWIYDSSDLASGVPDRFSGSGSGTSYSLTISSMEAEDAATYYCLQRSSYPRTFGGGTKLELKR
B2: MD707-1 (rat anti-human CD127 antibody, previous generation) (antibody, from another filing, V domains shown)
VH: AVHLVESGGGLVQPKESLKISCAASGFTFSNAAMFWVRQAPGKGLEWVARIRTKANNYATYYADSVKGRFTISRDDSKSMVYLQMDNVKTDDTAMYYCIVVVLTTTRDYFDYWGQGVMVTVSS
VL: DIVLTQAPLSVSVTPGESASISCRSSQSLLTVKGITSLYWFLQKPGKSPQLLMYRMSNLASGVPDRFRGSGSETDFTLKISKVETEDVGVYYCAQFLEYPHTFGAGTKLELKR

Legend:
[1] = target: Human CD127 (IL-7 receptor alpha chain) expressed on cells (human) (UniProt P16871); assay: cell-based or functional assay
[2] = target: Recombinant hCD127 (Sino Biologicals, reference 10975-H08H) (human) (UniProt P16871); assay: ELISA on immobilised recombinant hCD127
[3] = target: Recombinant hCD127 (Sino Biologicals, reference 10975-H08H) (human) (UniProt P16871); assay: ELISA, recombinant hCD127 coated on plastic at 1 µg/ml, antibody titrated; printed as ED 50
[4] = target: Recombinant CD127 Fc Chimera (10975-H03H, Sino Biological) (human) (UniProt P16871); assay: SPR (Biacore 3000), CD127Fc immobilised on CM5 chip, antibody injected, Bivalent analyte model
Chain of Recombinant CD127 Fc Chimera (10975-H03H, Sino Biological) (human) (P16871 21-239 I66T/V138I limits assumed): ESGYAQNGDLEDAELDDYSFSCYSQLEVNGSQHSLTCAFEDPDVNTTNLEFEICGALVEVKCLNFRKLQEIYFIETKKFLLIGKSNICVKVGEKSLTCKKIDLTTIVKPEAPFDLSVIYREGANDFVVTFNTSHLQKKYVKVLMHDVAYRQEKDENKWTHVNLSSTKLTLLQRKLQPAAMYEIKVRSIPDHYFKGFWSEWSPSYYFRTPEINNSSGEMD

Chain of Recombinant hCD127 (Sino Biologicals, reference 10975-H08H) (human) (P16871 21-239 I66T/V138I limits assumed): as above
Chain of Human CD127 (IL-7 receptor alpha chain) expressed on cells (human) (P16871 21-459 I66T/V138I): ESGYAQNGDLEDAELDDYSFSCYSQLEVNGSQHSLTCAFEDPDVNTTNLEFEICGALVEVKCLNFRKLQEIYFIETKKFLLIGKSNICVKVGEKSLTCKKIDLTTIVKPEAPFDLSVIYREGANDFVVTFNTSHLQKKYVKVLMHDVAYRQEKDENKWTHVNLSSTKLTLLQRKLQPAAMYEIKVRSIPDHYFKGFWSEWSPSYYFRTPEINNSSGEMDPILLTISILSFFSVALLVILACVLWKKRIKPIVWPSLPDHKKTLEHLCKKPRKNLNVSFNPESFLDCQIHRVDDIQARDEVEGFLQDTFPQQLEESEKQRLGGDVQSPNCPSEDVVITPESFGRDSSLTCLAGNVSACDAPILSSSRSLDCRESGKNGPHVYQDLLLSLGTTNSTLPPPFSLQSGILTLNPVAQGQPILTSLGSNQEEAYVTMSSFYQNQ

Row | Binder | inhibition of IL-7 induced pSTAT5+ T lymphocytes (% inhibition at 1000 ng/mL) [1] | EC50 (read off the curve) [2] [µg/mL] | EC50 [3] [µg/mL] | Ka [4] [M⁻¹] | Kd [4] [nM] | koff [4] [s⁻¹] | kon [4] [M⁻¹ s⁻¹]
1 | B1 | 50 |  |  |  |  |  | 
2 | B2 |  | 0.1 | 0.123 | 2.19e+09 | 0.456 | 0.000121 | 266000
